Numbering of substitutions follows the chain as printed. One block for each binder: values may come before it.
How the values were obtained:
Test in all cases: SPR; % of GpH7-A5/GpH7-B3/GpL16-k0
[1] = target: T1, FcγRIIa(R) extracellular domain with C-terminal His tag (human, UniProt P12318 34-217)
T1 construct: extracellular domain; R131 allotype; also called 2aR; CD32
T1 sequence: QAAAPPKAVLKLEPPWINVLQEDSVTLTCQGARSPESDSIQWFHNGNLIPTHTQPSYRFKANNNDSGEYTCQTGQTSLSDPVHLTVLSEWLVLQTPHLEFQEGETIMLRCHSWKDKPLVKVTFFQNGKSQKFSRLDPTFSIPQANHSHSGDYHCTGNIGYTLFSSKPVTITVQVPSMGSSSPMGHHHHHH

[2] = target: T2, FcγRIIIa extracellular domain with C-terminal His tag (human, UniProt P08637 17-208)
T2 construct: extracellular domain; also called 3a; CD16
T2 sequence (P08637 other isoform, or with tags, fused parts or gaps): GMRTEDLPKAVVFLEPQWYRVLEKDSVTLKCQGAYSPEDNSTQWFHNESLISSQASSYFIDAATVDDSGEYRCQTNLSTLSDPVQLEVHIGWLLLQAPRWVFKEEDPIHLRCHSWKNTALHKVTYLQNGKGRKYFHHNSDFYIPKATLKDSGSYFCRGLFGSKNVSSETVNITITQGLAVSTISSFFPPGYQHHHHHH

[3] = target: T3, FcγRIIa(H) extracellular domain with C-terminal His tag (human, UniProt P12318 34-217)
T3 construct: extracellular domain; H131 allotype; also called 2aH; CD32
T3 sequence: T1 sequence with R134H

[4] = target: T4, FcγRIIb extracellular domain with C-terminal His tag (human, UniProt P31994 43-217)
T4 construct: extracellular domain; also called 2b; CD32
T4 sequence: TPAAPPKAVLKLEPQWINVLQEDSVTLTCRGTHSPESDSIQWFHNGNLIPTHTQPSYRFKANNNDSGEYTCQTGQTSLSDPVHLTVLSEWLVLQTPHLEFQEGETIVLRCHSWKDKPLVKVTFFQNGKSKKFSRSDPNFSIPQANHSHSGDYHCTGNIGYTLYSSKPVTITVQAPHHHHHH

[5] = target: T5, FcγRIa extracellular domain with C-terminal His tag (human, UniProt P12314 16-292)
T5 construct: extracellular domain; also called 1a; CD64
T5 sequence (P12314 other isoform, or with tags, fused parts or gaps): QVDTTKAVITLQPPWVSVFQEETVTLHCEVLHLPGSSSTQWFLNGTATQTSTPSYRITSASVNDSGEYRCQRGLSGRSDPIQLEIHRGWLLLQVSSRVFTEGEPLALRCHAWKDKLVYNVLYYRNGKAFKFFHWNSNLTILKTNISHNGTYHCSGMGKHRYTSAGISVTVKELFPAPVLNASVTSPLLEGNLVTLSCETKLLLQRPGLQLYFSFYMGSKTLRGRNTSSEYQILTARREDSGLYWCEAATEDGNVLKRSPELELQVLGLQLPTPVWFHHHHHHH

- He/Con 2aR [1]: 87%
- He/Con 3a [2]: 85.2%
- He/Con 2aH [3]: 108%
- He/Con 2b [4]: 89.5%
- He/Con 1a [5]: 100%
B1: GpH7-A5/GpH7-B3 variant I332_03V/GpL16-k0 (antibody, human IgG1, kappa)
heavy 1: not shown
heavy 2: not shown
light: DIVMTQSPLSLPVTPGEPASISCQASESLVHSNRNTYLHWYLQKPGQSPQLLIYKVSNRFSGVPDRFSGSGSGTDFTLKISRVEAEDVGVYYCSQNTHVPPTFGQGTKVEIERTVAAPSVFIFPPSDEQLKSGTASVVCLLNNFYPREAKVQWKVDNALQSGNSQESVTEQDSKDSTYSLSSTLTLSKADYEKHKVYACEVTHQGLSSPVTKSFNRGEC
notes: heterodimerized IgG1 (He Ab), mutation in one H chain only; also called He Ab

- He/Con 2aR [1]: 95.1%
- He/Con 3a [2]: 101%
- He/Con 2aH [3]: 112%
- He/Con 2b [4]: 104%
- He/Con 1a [5]: 103%
B2: GpH7-A5/GpH7-B3 variant I332_19Q/GpL16-k0 (antibody, human IgG1, kappa)
heavy 1: not shown
heavy 2: not shown
light: B1 light
notes: as for B1

- He/Con 2aR [1]: 104%
- He/Con 3a [2]: 110%
- He/Con 2aH [3]: 119%
- He/Con 2b [4]: 118%
- He/Con 1a [5]: 104%
B3: GpH7-A5/GpH7-B3 variant I332_14T/GpL16-k0 (antibody, human IgG1, kappa)
heavy 1: not shown
heavy 2: not shown
light: B1 light
notes: as for B1

- He/Con 2aR [1]: 104%
- He/Con 3a [2]: 102%
- He/Con 2aH [3]: 100%
- He/Con 2b [4]: 101%
- He/Con 1a [5]: 107%
B4: GpH7-A5/GpH7-B3 variant I336_09D/GpL16-k0 (antibody, human IgG1, kappa)
heavy 1: not shown
heavy 2: not shown
light: B1 light
notes: as for B1

- He/Con 2aR [1]: 98.3%
- He/Con 3a [2]: 84.9%
- He/Con 2aH [3]: 114%
- He/Con 2b [4]: 99.6%
- He/Con 1a [5]: 99.3%
B5: GpH7-A5/GpH7-B3 variant I332_18N/GpL16-k0 (antibody, human IgG1, kappa)
heavy 1: not shown
heavy 2: not shown
light: B1 light
notes: as for B1

- He/Con 2aR [1]: 117%
- He/Con 3a [2]: 116%
- He/Con 2aH [3]: 115%
- He/Con 2b [4]: 102%
- He/Con 1a [5]: 104%
B6: GpH7-A5/GpH7-B3 variant I332_20W/GpL16-k0 (antibody, human IgG1, kappa)
heavy 1: not shown
heavy 2: not shown
light: B1 light
notes: as for B1

- He/Con 2aR [1]: 97.4%
- He/Con 3a [2]: 97.1%
- He/Con 2aH [3]: 101%
- He/Con 2b [4]: 91.5%
- He/Con 1a [5]: 106%
B7: GpH7-A5/GpH7-B3 variant I336_13S/GpL16-k0 (antibody, human IgG1, kappa)
heavy 1: not shown
heavy 2: not shown
light: B1 light
notes: as for B1

- He/Con 2aR [1]: 116%
- He/Con 3a [2]: 102%
- He/Con 2aH [3]: 109%
- He/Con 2b [4]: 117%
- He/Con 1a [5]: 111%
B8: GpH7-A5/GpH7-B3 variant I336_08L/GpL16-k0 (antibody, human IgG1, kappa)
heavy 1: not shown
heavy 2: not shown
light: B1 light
notes: as for B1

- He/Con 2aR [1]: 105%
- He/Con 3a [2]: 93.2%
- He/Con 2aH [3]: 98.3%
- He/Con 2b [4]: 99.6%
- He/Con 1a [5]: 109%
B9: GpH7-A5/GpH7-B3 variant I336_04F/GpL16-k0 (antibody, human IgG1, kappa)
heavy 1: not shown
heavy 2: not shown
light: B1 light
notes: as for B1

- He/Con 2aR [1]: 104%
- He/Con 3a [2]: 94.6%
- He/Con 2aH [3]: 100%
- He/Con 2b [4]: 98.4%
- He/Con 1a [5]: 112%
B10: GpH7-A5/GpH7-B3 variant I336_01G/GpL16-k0 (antibody, human IgG1, kappa)
heavy 1: not shown
heavy 2: not shown
light: B1 light
notes: as for B1

- He/Con 2aR [1]: 104%
- He/Con 3a [2]: 107%
- He/Con 2aH [3]: 106%
- He/Con 2b [4]: 98.7%
- He/Con 1a [5]: 108%
B11: GpH7-A5/GpH7-B3 variant I336_03V/GpL16-k0 (antibody, human IgG1, kappa)
heavy 1: not shown
heavy 2: not shown
light: B1 light
notes: as for B1

- He/Con 2aR [1]: 112%
- He/Con 3a [2]: 104%
- He/Con 2aH [3]: 110%
- He/Con 2b [4]: 111%
- He/Con 1a [5]: 112%
B12: GpH7-A5/GpH7-B3 variant I336_06M/GpL16-k0 (antibody, human IgG1, kappa)
heavy 1: not shown
heavy 2: not shown
light: B1 light
notes: as for B1

- He/Con 2aR [1]: 97.6%
- He/Con 3a [2]: 89%
- He/Con 2aH [3]: 113%
- He/Con 2b [4]: 103%
- He/Con 1a [5]: 100%
B13: GpH7-A5/GpH7-B3 variant I332_16H/GpL16-k0 (antibody, human IgG1, kappa)
heavy 1: not shown
heavy 2: not shown
light: B1 light
notes: as for B1

- He/Con 2aR [1]: 118%
- He/Con 3a [2]: 189%
- He/Con 2aH [3]: 122%
- He/Con 2b [4]: 163%
- He/Con 1a [5]: 106%
B14: GpH7-A5/GpH7-B3 variant I332_09D/GpL16-k0 (antibody, human IgG1, kappa)
heavy 1: not shown
heavy 2: not shown
light: B1 light
notes: as for B1

- He/Con 2aR [1]: 104%
- He/Con 3a [2]: 94.4%
- He/Con 2aH [3]: 103%
- He/Con 2b [4]: 98.7%
- He/Con 1a [5]: 109%
B15: GpH7-A5/GpH7-B3 variant I336_11K/GpL16-k0 (antibody, human IgG1, kappa)
heavy 1: not shown
heavy 2: not shown
light: B1 light
notes: as for B1

- He/Con 2aR [1]: 113%
- He/Con 3a [2]: 213%
- He/Con 2aH [3]: 112%
- He/Con 2b [4]: 158%
- He/Con 1a [5]: 109%
B16: GpH7-A5/GpH7-B3 variant I332_10E/GpL16-k0 (antibody, human IgG1, kappa)
heavy 1: not shown
heavy 2: not shown
light: B1 light
notes: as for B1

- He/Con 2aR [1]: 100%
- He/Con 3a [2]: 106%
- He/Con 2aH [3]: 102%
- He/Con 2b [4]: 92.8%
- He/Con 1a [5]: 109%
B17: GpH7-A5/GpH7-B3 variant I336_02A/GpL16-k0 (antibody, human IgG1, kappa)
heavy 1: not shown
heavy 2: not shown
light: B1 light
notes: as for B1

- He/Con 2aR [1]: 91%
- He/Con 3a [2]: 76%
- He/Con 2aH [3]: 94.9%
- He/Con 2b [4]: 91.3%
- He/Con 1a [5]: 104%
B18: GpH7-A5/GpH7-B3 variant I332_08L/GpL16-k0 (antibody, human IgG1, kappa)
heavy 1: not shown
heavy 2: not shown
light: B1 light
notes: as for B1

- He/Con 2aR [1]: 73.5%
- He/Con 3a [2]: 78.1%
- He/Con 2aH [3]: 104%
- He/Con 2b [4]: 60.9%
- He/Con 1a [5]: 102%
B19: GpH7-A5/GpH7-B3 variant I332_12R/GpL16-k0 (antibody, human IgG1, kappa)
heavy 1: not shown
heavy 2: not shown
light: B1 light
notes: as for B1

- He/Con 2aR [1]: 104%
- He/Con 3a [2]: 89.3%
- He/Con 2aH [3]: 108%
- He/Con 2b [4]: 115%
- He/Con 1a [5]: 106%
B20: GpH7-A5/GpH7-B3 variant I332_04F/GpL16-k0 (antibody, human IgG1, kappa)
heavy 1: not shown
heavy 2: not shown
light: B1 light
notes: as for B1

- He/Con 2aR [1]: 108%
- He/Con 3a [2]: 92.5%
- He/Con 2aH [3]: 114%
- He/Con 2b [4]: 116%
- He/Con 1a [5]: 105%
B21: GpH7-A5/GpH7-B3 variant I332_06M/GpL16-k0 (antibody, human IgG1, kappa)
heavy 1: not shown
heavy 2: not shown
light: B1 light
notes: as for B1

- He/Con 2aR [1]: 109%
- He/Con 3a [2]: 92.4%
- He/Con 2aH [3]: 119%
- He/Con 2b [4]: 112%
- He/Con 1a [5]: 101%
B22: GpH7-A5/GpH7-B3 variant I332_15Y/GpL16-k0 (antibody, human IgG1, kappa)
heavy 1: not shown
heavy 2: not shown
light: B1 light
notes: as for B1

- He/Con 2aR [1]: 80.5%
- He/Con 3a [2]: 56.3%
- He/Con 2aH [3]: 69.9%
- He/Con 2b [4]: 83.7%
- He/Con 1a [5]: 99.2%
B23: GpH7-A5/GpH7-B3 variant I332_05P/GpL16-k0 (antibody, human IgG1, kappa)
heavy 1: not shown
heavy 2: not shown
light: B1 light
notes: as for B1

- He/Con 2aR [1]: 104%
- He/Con 3a [2]: 114%
- He/Con 2aH [3]: 105%
- He/Con 2b [4]: 98.2%
- He/Con 1a [5]: 111%
B24: GpH7-A5/GpH7-B3 variant I336_10E/GpL16-k0 (antibody, human IgG1, kappa)
heavy 1: not shown
heavy 2: not shown
light: B1 light
notes: as for B1

- He/Con 2aR [1]: 97.9%
- He/Con 3a [2]: 95.6%
- He/Con 2aH [3]: 113%
- He/Con 2b [4]: 109%
- He/Con 1a [5]: 97.3%
B25: GpH7-A5/GpH7-B3 variant I332_13S/GpL16-k0 (antibody, human IgG1, kappa)
heavy 1: not shown
heavy 2: not shown
light: B1 light
notes: as for B1

- He/Con 2aR [1]: 104%
- He/Con 3a [2]: 88.8%
- He/Con 2aH [3]: 104%
- He/Con 2b [4]: 101%
- He/Con 1a [5]: 105%
B26: GpH7-A5/GpH7-B3 variant I336_12R/GpL16-k0 (antibody, human IgG1, kappa)
heavy 1: not shown
heavy 2: not shown
light: B1 light
notes: as for B1

— patent US20260167699A1 (Chugai, published 2026)
